Legend:
[1] = molecular target: T1, HER3 on HER3-transfected SP 2/0 cells (human, UniProt P21860 20-1342); assay: flow cytometry, HER3-transfected SP2/0 cells stained with 1 µg/ml antibody, PE-goat anti-mouse IgG
T1 construct: whole, on cells; The flow cytometry text says only 'HER3 transfected SP2/0 cells'; also called human HER3 expressing SP 2/0 cells
Protocol: The average OD values of triplicates are presented. […] EGFR, HER2 or HER3-transfected SP 2/0 cells were stained with 1 μg/ml of purified antibody, followed by PE-goat anti-mouse IgG.
An ELISA plate was coated with 1 μg/ml of recombinant soluble EGFR, HER2, or the extracellular domain of HER3.

[2] = molecular target: T2, recombinant soluble HER3 (extracellular domain) (UniProt P21860 20-643, limits assumed); assay: NRG1 competition ELISA on coated recombinant soluble HER3
T2 construct: extracellular domain; also called ERBB3
T2 sequence (P21860 20-643 limits assumed): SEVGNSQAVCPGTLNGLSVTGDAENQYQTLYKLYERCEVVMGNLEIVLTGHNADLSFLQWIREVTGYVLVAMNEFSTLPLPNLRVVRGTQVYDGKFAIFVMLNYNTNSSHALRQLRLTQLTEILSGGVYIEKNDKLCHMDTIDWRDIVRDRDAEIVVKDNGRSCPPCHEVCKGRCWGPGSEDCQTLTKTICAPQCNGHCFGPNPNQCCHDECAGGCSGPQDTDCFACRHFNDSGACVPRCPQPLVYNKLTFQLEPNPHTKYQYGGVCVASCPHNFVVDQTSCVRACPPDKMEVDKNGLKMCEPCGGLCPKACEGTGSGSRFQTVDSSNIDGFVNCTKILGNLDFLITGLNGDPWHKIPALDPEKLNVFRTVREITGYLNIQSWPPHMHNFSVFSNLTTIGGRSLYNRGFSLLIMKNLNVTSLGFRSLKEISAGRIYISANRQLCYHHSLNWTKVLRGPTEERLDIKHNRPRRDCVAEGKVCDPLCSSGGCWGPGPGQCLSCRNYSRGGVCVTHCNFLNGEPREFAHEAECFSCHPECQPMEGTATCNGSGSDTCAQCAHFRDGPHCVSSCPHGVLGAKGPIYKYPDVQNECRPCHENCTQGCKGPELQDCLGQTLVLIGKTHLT

T1 sequence (P21860 20-1342): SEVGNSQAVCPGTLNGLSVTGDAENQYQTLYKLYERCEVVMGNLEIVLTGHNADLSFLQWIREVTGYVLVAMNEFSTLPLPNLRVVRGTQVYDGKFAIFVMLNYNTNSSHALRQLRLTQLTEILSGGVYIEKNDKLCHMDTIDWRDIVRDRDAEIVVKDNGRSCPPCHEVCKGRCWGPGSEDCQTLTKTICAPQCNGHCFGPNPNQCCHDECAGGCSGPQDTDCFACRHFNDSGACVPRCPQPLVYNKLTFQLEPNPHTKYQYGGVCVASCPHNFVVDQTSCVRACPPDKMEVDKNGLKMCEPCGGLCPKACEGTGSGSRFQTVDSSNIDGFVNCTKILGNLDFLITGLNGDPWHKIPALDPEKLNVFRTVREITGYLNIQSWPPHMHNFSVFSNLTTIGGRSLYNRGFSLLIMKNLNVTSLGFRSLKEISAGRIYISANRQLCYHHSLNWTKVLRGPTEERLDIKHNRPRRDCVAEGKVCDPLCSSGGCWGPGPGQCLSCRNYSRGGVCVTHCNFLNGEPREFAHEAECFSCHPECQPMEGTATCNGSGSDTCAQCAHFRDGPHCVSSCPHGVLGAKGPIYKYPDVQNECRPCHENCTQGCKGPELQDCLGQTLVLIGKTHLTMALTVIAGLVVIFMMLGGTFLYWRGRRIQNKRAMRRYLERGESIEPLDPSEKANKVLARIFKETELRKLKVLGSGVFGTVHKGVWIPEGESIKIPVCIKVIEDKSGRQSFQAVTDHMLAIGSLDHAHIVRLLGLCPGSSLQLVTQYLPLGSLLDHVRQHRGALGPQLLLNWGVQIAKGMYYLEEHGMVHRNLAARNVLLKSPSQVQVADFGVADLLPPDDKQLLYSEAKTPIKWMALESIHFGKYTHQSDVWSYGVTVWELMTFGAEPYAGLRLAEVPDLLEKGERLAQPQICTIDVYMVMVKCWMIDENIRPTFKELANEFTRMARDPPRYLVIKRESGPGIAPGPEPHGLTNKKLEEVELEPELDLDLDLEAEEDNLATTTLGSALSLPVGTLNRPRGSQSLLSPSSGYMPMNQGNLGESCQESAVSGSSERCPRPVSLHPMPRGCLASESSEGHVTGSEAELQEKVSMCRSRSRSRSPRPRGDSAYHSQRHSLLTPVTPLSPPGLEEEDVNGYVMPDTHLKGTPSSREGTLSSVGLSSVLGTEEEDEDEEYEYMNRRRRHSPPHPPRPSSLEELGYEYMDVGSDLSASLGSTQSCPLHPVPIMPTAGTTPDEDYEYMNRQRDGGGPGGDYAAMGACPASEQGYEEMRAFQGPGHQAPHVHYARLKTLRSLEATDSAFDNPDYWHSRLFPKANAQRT

binding result [1] | binding result [2] | Binder
binds | binds | 3D4 antibody (antibody, V domains shown, Mouse monoclonal antibody raised against human HER3 expressing SP 2/0 cells; also called ligand-dependent HER3 antibody) VH: QVQLQQSGPELVKPGASVRISCKASGYTFTNYFLHWMKQRPGQGLEWIGWIYPGNVNTKYSEKFKGKATLTADKSSSTAYMQLSSLTSEDSAVYFCARSTYYSMDYWGQGTSVTVSS VL: DIVLTQSPASLAVSLGQRATISCRASESVDSYGNSFMNWYQQKPGQPPKVLIYRASNLESGIPARFSGSGSRTDFTLTITPVEADDVATYYCQQSYEDPPTFGGGTKLEIK
binds | binds | 1A5 antibody (antibody, V domains shown, Hybridoma monoclonal antibody detected with goat anti-mouse IgG; also called ligand-independent HER3 antibody) VH: QVQLQQSGAELARPGASVKLSCKASGYTFTDNYINWMKQRPGQGLEWIGEIYPGSGNTYYNEKFKGKATLTADKSSSTAYMQLSSLTSEESAVYFCARSPNLRLYYFDYWGQGTTLTVSS VL: DIVMTQSPATLSVTPGDRVSLSCRASQSINDYLYWYQQKLHESPRLLIKFASHSISGIPSRFSGSGSGSDFTLSINSVEPEDVGVYYCQNGHSFPLTFGAGTKLELK

— patent US20140314774A1 (UAB RESEARCH FOUNDATION, published 2014)
